How the values were obtained:
[1] = target: GyrB.FGFR1KD.TC, activated (incubated with ATP, autophosphorylated) (UniProt P11362); experiment: FRET or BRET; TR-FRET, lifetime of donor mTFP in a quartz cuvette; GyrB.FGFR1KD.TC (1 uM) tagged with FlAsH-EDT2 and mTFP.nSH2 (1 uM); 40 mM Tris-HCl pH 8.0, 20 mM MgCl2, 20 mM NaCl, 100 uM TCEP, 100 uM Na3VO4; with 50 uM ATP, ambient conditions, 30 min
[2] = target: FGFR1 kinase domain and tail (Homo sapiens) (UniProt P11362); details: cited from earlier work

Row | decrease in donor lifetime [1] | Substance | Kd [2]
1 | 500 ps | mTurquoise.nSH2 fusion protein (mTFP.nSH2) (domain or fragment) | 
2 |  | PLCγ1 nSH2 (from UniProt P19174) | 5 nM
